B1: AKKYAKKAEKAYAKKAKAAKEKKAYAKKEAKAYKAAEAKKKAKAEAKKYAKEAAKAKKEAYKAEAKKYAKAAKAEKKEYAAAEAKKAEAAKAYKAEAAKAAAKEAAYEA (peptide)
chain: AKKYAKKAEKAYAKKAKAAKEKKAYAKKEAKAYKAAEAKKKAKAEAKKYAKEAAKAKKEAYKAEAKKYAKAAKAEKKEYAAAEAKKAEAAKAYKAEAAKAAAKEAAYEA
notes: reversed-phase fraction 2 used for calibration
B2: AKKYAKKEKAYAKKAEKAAKKAEAKAYKAAEAKKKAKAEAKKYAKAAKAEKKEYAAAEAKYKAEAAKKAYKAEAAKAAAKEAAYEA (peptide)
chain: AKKYAKKEKAYAKKAEKAAKKAEAKAYKAAEAKKKAKAEAKKYAKAAKAEKKEYAAAEAKYKAEAAKKAYKAEAAKAAAKEAAYEA
B3: AKKYAKKEKAYAKKAEKAAKKAEAKAYKAAEAKKKAKAEAKKYAKAAKAEKKEYAAAEAKYKAEAAKAAAKEAAYEA (peptide)
chain: AKKYAKKEKAYAKKAEKAAKKAEAKAYKAAEAKKKAKAEAKKYAKAAKAEKKEYAAAEAKYKAEAAKAAAKEAAYEA
B4: AKKYAKKEKAYAKAKKAEAKAAKKAKAEAKKYAKAAKAEKKEYAAAEAKYKAEAAKAAAKEAAYEA (peptide)
chain: AKKYAKKEKAYAKAKKAEAKAAKKAKAEAKKYAKAAKAEKKEYAAAEAKYKAEAAKAAAKEAAYEA

Assays:
[1] = system: anti-Cop-1 (5-7-2) monoclonal antibody; test: RIA: binding of anti-Cop 1 monoclonal antibody to coated antigen; settings: for % Cop 1 binding: relative to Cop 1 reference standard 03494; for Binding of mAb cpm: wells coated with 2 μg/ml antigen, 125I-goat anti-mouse IgG bound
[2] = system: SC-103 Cop 1 specific T cell clone; test: Proliferation of Cop 1 specific T cell line (3H-thymidine uptake); settings: for 3H-Thymidine incorporation (% Cop 1): 10 μg antigen, relative to 03494; for 3H-Thymidine incorporation cpm: cultured with 10 μg antigen
[3] = system: BALB/c-Ts-Cop-1 T cell line; test: as above; settings: for 3H-Thymidine incorporation (% Cop 1): 10 μg antigen, relative to 03494; for 3H-Thymidine incorporation cpm: cultured with 10 μg antigen
[4] = system: anti-Cop-1 (3-3-9) monoclonal antibody; test: RIA: binding of anti-Cop 1 monoclonal antibody to coated antigen; settings: for % Cop 1 binding: relative to Cop 1 reference standard 03494; for Binding of mAb cpm: wells coated with 2 μg/ml antigen, 125I-goat anti-mouse IgG bound
[5] = system: anti-Cop-1 (3-1-45) monoclonal antibody; test: as above; settings: for % Cop 1 binding: relative to Cop 1 reference standard 03494; for Binding of mAb cpm: wells coated with 2 μg/ml antigen, 125I-goat anti-mouse IgG bound
[6] = system: SC-14 Cop 1 specific T cell clone; test: Proliferation of Cop 1 specific T cell line (3H-thymidine uptake); settings: for 3H-Thymidine incorporation (% Cop 1): 10 μg antigen, relative to 03494; for 3H-Thymidine incorporation cpm: cultured with 10 μg antigen
L-22-1 T cell clone = test: as above; settings: for 3H-Thymidine incorporation (% Cop 1): 10 μg antigen, relative to 03494; for 3H-Thymidine incorporation cpm: cultured with 10 μg antigen
[7] = system: experimental allergic encephalomyelitis (EAE) in (SJL/JxBALB/c)FI mice; test: Blocking of experimental allergic encephalomyelitis by injection with complete adjuvant; format: in vivo, mouse; settings: for Incidence of EAE: antigen included in the encephalitogenic inoculum, animals with EAE/animals in group; for % Blocking: blocking of EAE versus control without antigen; for Mean Score: disease score 0 (healthy) to 5 (dead); for Mean Onset: animals not protected, onset = day of score of at least 1
Text: Blocking of Experimental Allergic Encephalomyelitis—To test the physiological activity of TV-markers, protection from experimental allergic encephalomyelitis (EAE) was investigated in mice. Injection of Copolymer 1 in complete Freund's adjuvant together with the encephalitogen can block EAE essentially as described in Aharoni et al., 17 Eur. J. Immunol. 23 (1993). Other researchers have observed that the therapeutic effect of Copolymer 1 in multiple sclerosis patients is also associated with the induction of TH2 cells. Lahat et al., 244 J. Neurol. 129 (1997). In this example, EAE is blocked by different polypeptides of the present invention.
Pertussis toxin (0.25 ml, 250 ng, Sigma) is injected intravenously, immediately after and 48 hr later. […] 2156 (1979).
EAE blocking by injection with complete adjuvant—Each antigen being tested was included in the encephalitogenic inoculum. […] Also shown is the mean onset of EAE in animals which were not protected. Disease intensity is scored daily in mice with a score of zero (0=healthy) to five (5=dead).

| Molecule | % Cop 1 binding [1] | Binding of mAb cpm [1] | 3H-Thymidine incorporation (% Cop 1) [2] | 3H-Thymidine incorporation cpm [2] | 3H-Thymidine incorporation (% Cop 1) [3] | 3H-Thymidine incorporation cpm [3] | % Cop 1 binding [4] | Binding of mAb cpm [4] | % Cop 1 binding [5] | Binding of mAb cpm [5] | 3H-Thymidine incorporation (% Cop 1) [6] | 3H-Thymidine incorporation cpm [6] | 3H-Thymidine incorporation (% Cop 1) (L-22-1 T cell clone) | 3H-Thymidine incorporation cpm (L-22-1 T cell clone) | Incidence of EAE [7] | % Blocking [7] | Mean Score [7] | Mean Onset [7] |
| --- | --- | --- | --- | --- | --- | --- | --- | --- | --- | --- | --- | --- | --- | --- | --- | --- | --- | --- |
| AKKYAKKEKAYAKKAEKAAKKAEAKAYKAAEAKKKAEAKYKAEAAKAAAKEAAYEA [TV-56] | (91) % | 9584 cpm | (0) % | 237 cpm | (59) % | 19545 cpm | (2) % | 1614 cpm | (6) % | 1581 cpm | (117) % | 3495 cpm | (0) % | 232 cpm | – | – | – | – |
| AKKYAKKEKAAKKAYKKEAKAKAAEAAAKEAAYEA [TV-35] | (1) % | 657 cpm | (0) % | 438 cpm | (28) % | 9465 cpm | (0) % | 1176 cpm | (0) % | 343 cpm | (0) % | 884 cpm | (0) % | 225 cpm | – | – | – | – |
| AKKYAKKAKAEKAKKAYKAAEAKKAAKYEKAAAEKAAAKEAAYEA [TV-45] | – | – | – | – | – | – | – | – | – | – | – | – | – | – | 0/10 | 100% | 0 | – |
| B1 | – | – | – | – | – | – | – | – | – | – | – | – | – | – | 0/10 | 100% | 0 | – |
| B2 | (76) % | 8140 cpm | (0) % | 298 cpm | (44) % | 14694 cpm | (2) % | 1625 cpm | (6) % | 1606 cpm | (65) % | 2284 cpm | (1) % | 418 cpm | 3/10 | 70% | 0.7 | 12.0 days |
| B3 | (37) % | 4259 cpm | (0) % | 327 cpm | (52) % | 17367 cpm | (6) % | 2265 cpm | (9) % | 2152 cpm | (83) % | 2701 cpm | (1) % | 300 cpm | 1/9 | 89% | 0.2 | 14.0 days |
| B4 | – | – | – | – | – | – | – | – | – | – | – | – | – | – | 6/10 | 40% | 2.8 | 11.7 days |
